Results as given in the supplement of paper PMC10724198.
± gives the standard deviation of the averaged measurements.

Tested on: Saccharomyces cerevisiae
Assay: protein stability index of tFT-peptide fusion (C-terminal peptide) (PSI (0-1 scale)); higher = more stable (slower turnover)
Details: genetic background: wild type; temperature: 30 C
Method: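 MPS profiling in S. cerevisiae of the yeast C-terminome library: the last 12 aa of each annotated ORF are fused to the C-terminus of a sfGFP-mCherry timer, after a GGGS linker. Cells are FACS-sorted into 8 mCherry/sfGFP bins and deep-sequenced. PSI runs from 0 (unstable) to 1 (stable); wild type and das1Δ backgrounds, two technical replicates each.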

Going from FVLKCIKDMYAK [IRC25 C-terminal 12 aa] to FVSSDPGLTQWL [HNT2 C-terminal 12 aa], the protein stability index rises from 0.681 ± 0.017 to 0.713 ± 0.0078.

FVVKEGLLKNRK [GTF1 C-terminal 12 aa] and FYDLWDAYEDDS [GDB1 C-terminal 12 aa] are within error of each other in protein stability index: 0.7 ± 0.024 for the first, 0.704 ± 0.013 for the second.

First: FYPVTSEFSKNK [HOB2 C-terminal 12 aa]
Second: GAGAFAVGALLL [NCW2 C-terminal 12 aa]
The protein stability index of the first is higher: 0.767 ± 0.013 for the first, 0.687 ± 0.026 for the second.

GALALGLISYLL [FIT2 C-terminal 12 aa] and GALPTTDPLFQW [YJL043W C-terminal 12 aa] are within error of each other in protein stability index: 0.686 ± 0.014 for the first, 0.704 ± 0.0071 for the second.

First: GAPSLYSYLLCL [IRC2 C-terminal 12 aa]
Second: GAVVAGAAALLL [TIP1 C-terminal 12 aa]
The protein stability index of the first is lower: 0.487 ± 0.019 for the first, 0.709 ± 0.032 for the second.

GCGEDLKKDILS [DOP1 C-terminal 12 aa] and GCVLGKLGYLKM [RAD33 C-terminal 12 aa] are within error of each other in protein stability index: 0.668 ± 0.024 for the first, 0.619 ± 0.07 for the second.

GDDESRPRKMRR [BMS1 C-terminal 12 aa] and GDDPYAEYFQDF [TPK2 C-terminal 12 aa] are within error of each other in protein stability index: 0.674 ± 0.012 for the first, 0.717 ± 0.039 for the second.

First: GEAVPEPVEEES [SEC27 C-terminal 12 aa]
Second: GFRPECLYYYIK [YPR016W-A C-terminal 12 aa]
The protein stability index of the first is higher: 0.691 ± 0.043 for the first, 0.564 ± 0.024 for the second.

Going from GGPPKVNKDIIS [HAT2 C-terminal 12 aa] to GIGFFAVCFERD [RCM1 C-terminal 12 aa], the protein stability index falls from 0.6995 ± 0.006 to 0.664 ± 0.012.

Compared with GKCTSSKFKLSS [KRE6 C-terminal 12 aa], GKNGARLSEIGW [SNZ2 C-terminal 12 aa] is higher in protein stability index: 0.619 ± 0.024 for the first, 0.691 ± 0.025 for the second.

Going from GKNKKKSKHSKK [PRP43 C-terminal 12 aa] to GLDPEELEDLVT [PDS1 C-terminal 12 aa], the protein stability index rises from 0.651 ± 0.0029 to 0.7032 ± 0.0028.

GLEFVASRSASS [MDH2 C-terminal 12 aa] and GLNKNMLKKIIK [YPR084W C-terminal 12 aa] are within error of each other in protein stability index: 0.729 ± 0.033 for the first, 0.668 ± 0.03 for the second.

Compared with GLQNRLARNNEK [MRP4 C-terminal 12 aa], GLQVMNEMKQRW [ECM25 C-terminal 12 aa] is higher in protein stability index: 0.6607 ± 0.0019 for the first, 0.724 ± 0.053 for the second.

GMLGLSALLGGE [SEC11 C-terminal 12 aa] and GNLPQPVFQPLL [VHR1 C-terminal 12 aa] are within error of each other in protein stability index: 0.678 ± 0.016 for the first, 0.6795 ± 0.0033 for the second.

Going from GQLTTDEETCIE [RTR2 C-terminal 12 aa] to GRDCISKRAILE [IMP2 C-terminal 12 aa], the protein stability index falls from 0.726 ± 0.034 to 0.6702 ± 0.004.

GRGLLGCRIQEL [NAS2 C-terminal 12 aa] and GSESILTAKQPI [OCA2 C-terminal 12 aa] are within error of each other in protein stability index: 0.681 ± 0.032 for the first, 0.685 ± 0.009 for the second.

Going from GSNNRGYTLIDL [ENT1 C-terminal 12 aa] to GTDLLKENRNCS [YML096W C-terminal 12 aa], the protein stability index falls from 0.736 ± 0.029 to 0.6895 ± 0.0012.

First: GTVDEIIKFLSE [YTA7 C-terminal 12 aa]
Second: GVLLILASALFT [ZRT3 C-terminal 12 aa]
The protein stability index of the first is higher: 0.736 ± 0.066 for the first, 0.341 ± 0.0088 for the second.

Compared with GVSTGYEKIRYI [FUI1 C-terminal 12 aa], GVVKFNSEHYRD [SAP185 C-terminal 12 aa] is higher in protein stability index: 0.31 ± 0.025 for the first, 0.668 ± 0.034 for the second.

GWLQDSNFTKYL [FUN19 C-terminal 12 aa] and GWQTGALIIKKH [SAF1 C-terminal 12 aa] are within error of each other in protein stability index: 0.808 ± 0.13 for the first, 0.763 ± 0.11 for the second.

Compared with GYDTVASLDFWG [ROM2 C-terminal 12 aa], GYEDGTIKLNKI [ASA1 C-terminal 12 aa] is lower in protein stability index: 0.761 ± 0.047 for the first, 0.682 ± 0.018 for the second.

HAEFHARNLGLI [YJL068C C-terminal 12 aa] and HGGNISSSTYQA [GND2 C-terminal 12 aa] are within error of each other in protein stability index: 0.686 ± 0.023 for the first, 0.722 ± 0.054 for the second.

First: HHVESVCIMKRI [TRM2 C-terminal 12 aa]
Second: HPCTSLTSVIVV [YGL072C C-terminal 12 aa]
The protein stability index of the first is higher: 0.675 ± 0.034 for the first, 0.433 ± 0.051 for the second.

HSRNPKRSSTTL [TRK1 C-terminal 12 aa] and HTPSLKTWSTIK [FKS1 C-terminal 12 aa] are within error of each other in protein stability index: 0.767 ± 0.069 for the first, 0.711 ± 0.019 for the second.

HVDKRTKIDQEA [ISW2 C-terminal 12 aa] and HWQYMKDYLNLY [SLI1 C-terminal 12 aa] are within error of each other in protein stability index: 0.681 ± 0.016 for the first, 0.684 ± 0.06 for the second.

IAEGKSLGIIGA [HXK1 C-terminal 12 aa] and “IAPSGKYYFPFG [YMR031W-A C-terminal 12 aa]” are within error of each other in protein stability index: 0.686 ± 0.034 for the first, 0.684 ± 0.011 for the second.

IARSRRAFLSKL [MRP7 C-terminal 12 aa] and IDASKDQDTMME [NUG1 C-terminal 12 aa] are within error of each other in protein stability index: 0.846 ± 0.089 for the first, 0.736 ± 0.068 for the second.

First: IDEFYECLQDQQ [DCN1 C-terminal 12 aa]
Second: IDKFLNSAVLSA [YMR307C-A C-terminal 12 aa]
The protein stability index of the first is higher: 0.721 ± 0.013 for the first, 0.637 ± 0.017 for the second.

First: IDKLRNSFYKTI [SMU2 C-terminal 12 aa]
Second: IDSNNAQSKIFS [MYO1 C-terminal 12 aa]
The protein stability index of the first is lower: 0.515 ± 0.028 for the first, 0.6648 ± 0.0055 for the second.

IDVELEEESFTW [FRE1 C-terminal 12 aa] and IEFSMRSLCQGK [CFT1 C-terminal 12 aa] are within error of each other in protein stability index: 0.743 ± 0.022 for the first, 0.685 ± 0.038 for the second.

First: IEHYKSEQEKSL [MUP1 C-terminal 12 aa]
Second: IEQETGSEEKQE [SBP1 C-terminal 12 aa]
The protein stability index of the first is lower: 0.67 ± 0.035 for the first, 0.7729 ± 0.0054 for the second.

Going from IFCTLFIHTQIL [PLC1 C-terminal 12 aa] to IFHQLQKKINRS [IWR1 C-terminal 12 aa], the protein stability index rises from 0.143 ± 0.023 to 0.6656 ± 0.0027.

IFIFSWLGYEDS [ATG10 C-terminal 12 aa] and IGEWTISYTSLI [IPA1 C-terminal 12 aa] are within error of each other in protein stability index: 0.664 ± 0.019 for the first, 0.669 ± 0.041 for the second.

Compared with IGFKRKRKHAKK [NOP4 C-terminal 12 aa], IGFNKLGQMVYI [MRPS35 C-terminal 12 aa] is lower in protein stability index: 0.7117 ± 0.0028 for the first, 0.666 ± 0.029 for the second.

First: IGGNCATRLFKL [SLM6 C-terminal 12 aa]
Second: IGRRKLVGYKHH [ATP20 C-terminal 12 aa]
The protein stability index of the first is higher: 0.737 ± 0.024 for the first, 0.666 ± 0.015 for the second.

Compared with IGSIKEDYLGAI [RPB7 C-terminal 12 aa], IHYFKSNLSSPS [RAM1 C-terminal 12 aa] is higher in protein stability index: 0.6737 ± 0.0027 for the first, 0.724 ± 0.028 for the second.

First: IIDLNLHSFTKQ [POP6 C-terminal 12 aa]
Second: IKLADAIYKGLE [FOL1 C-terminal 12 aa]
The protein stability index of the first is higher: 0.73 ± 0.021 for the first, 0.6648 ± 0.0011 for the second.

Compared with IKNTGDLLKLYK [ALK1 C-terminal 12 aa], ILELVNEDYQSI [MRP17 C-terminal 12 aa] is higher in protein stability index: 0.647 ± 0.0085 for the first, 0.71 ± 0.039 for the second.

Compared with ILEYQKRRSFIK [IRC3 C-terminal 12 aa], ILKPYYIWNNRN [ARR3 C-terminal 12 aa] is lower in protein stability index: 0.652 ± 0.021 for the first, 0.276 ± 0.0074 for the second.

ILRLRLRKATFD [PRM1 C-terminal 12 aa] and ILRQARCDRPHY [YEL068C C-terminal 12 aa] are within error of each other in protein stability index: 0.708 ± 0.044 for the first, 0.727 ± 0.071 for the second.

“ILVLRHFDEIFI [YOR032W-A C-terminal 12 aa]” and IMICFLERRKGN [FYV1 C-terminal 12 aa] are within error of each other in protein stability index: 0.655 ± 0.044 for the first, 0.638 ± 0.075 for the second.

Work on “IMTSEIVTNALR [YEL030C-A C-terminal 12 aa]” yielded a protein stability index of 0.705 ± 0.022.
